Consider 9 molecules from patent publication US20160228546A1 (CYTOMX THERAPEUTICS, published 2016).

In general, Kd refers to a measure of binding affinity in units of concentration.

The chains are these.
B1: JS306 (peptide)
peptide: PCSEWQSMVQPRCYYGG
B2: JS315 (peptide)
peptide: GAMACYNIFEYWCSAMK
notes: also called 315MM
B3: JS313 (peptide)
peptide: GVGLCYTILEQWCEMGR
notes: also called 313MM
B4: JS311 (peptide)
peptide: VHAWEQLVIQELYHC
notes: also called 311MM
B5: JS292 (peptide)
peptide: GHGMCYTILEDHCDRVR
notes: also called 292MM
B6: JS283 (peptide)
peptide: ATAVWNSMVKQSCYMQG
notes: also called 283MM
B7: JS1825 (peptide)
peptide: SCTAWQSMVEQRCYFG
B8: JS1827 (peptide)
peptide: PCSAWQSMVEQRCYFG
B9: JS1829 (peptide)
peptide: PCSKWESMVLQSCYFG

The target in one experiment is T1, anti-VEGF IgG antibody (DyLight-labelled in the FACS analyses.).
T1 construct: It was DyLight-labelled in the FACS analysis; also called anti-VEGF antibody; DyLight labeled anti-VEGF
T1 sequence (VH, as listed by the source limits assumed, chain 1 of 2): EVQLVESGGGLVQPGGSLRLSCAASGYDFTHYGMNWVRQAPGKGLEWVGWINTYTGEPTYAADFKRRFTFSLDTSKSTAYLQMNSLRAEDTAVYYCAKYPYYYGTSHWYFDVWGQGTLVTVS
T1 sequence (VL, as listed by the source limits assumed, chain 2 of 2): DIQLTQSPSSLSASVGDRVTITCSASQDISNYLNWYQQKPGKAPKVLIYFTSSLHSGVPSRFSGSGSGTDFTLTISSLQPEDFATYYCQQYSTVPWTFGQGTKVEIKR
Put plainly: method not stated.
In the case of B1, the Kd was greater than 600 nM.

In another experiment the target is T2, anti-VEGF scFv AB.
T2 construct: VL-linker-VH designed from ranibizumab; also called anti-VECF scFv
T2 sequence (scFv, as listed by the source): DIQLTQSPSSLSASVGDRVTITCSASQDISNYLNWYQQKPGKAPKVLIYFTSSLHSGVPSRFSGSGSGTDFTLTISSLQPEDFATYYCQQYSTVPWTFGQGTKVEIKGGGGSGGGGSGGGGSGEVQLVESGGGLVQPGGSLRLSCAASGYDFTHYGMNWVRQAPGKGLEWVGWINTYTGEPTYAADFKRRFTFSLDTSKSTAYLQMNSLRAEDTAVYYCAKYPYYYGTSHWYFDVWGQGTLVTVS
Put plainly: FACS, peptide displayed on E. coli. (Flow cytometry measures light scatter and fluorescence of single cells or particles in a stream.)
For the molecule B2, the binding result is on record as “binds”.
Take B3: the binding result was “binds”.
Turning to B4, the binding result is reported as “binds”.
The same measure, in the same setting: the value for B5 was “binds”; that for B6 was “binds”.

A further experiment addresses T1, anti-VEGF IgG antibody. As to the kind of experiment: FACS of eCPX3.0 clones at 3 concentrations of DyLight labeled anti-VEGF.
Consider B7, for which the “fold higher affinity than 306P” value was no less than 10 fold.
Same read-out and setting: the value for B8 was no less than 10 fold; that for B9 was no less than 10 fold.
